Paper PMC8396674

Experiments:
Experiment in all cases: AUC; sedimentation velocity, 0.25 mg/mL (14.7 µM) protein with 7-fold molar excess of TbCl3, 20 °C, 50,000 rpm, c(s) analysis
[1] = target: gC1q domain of human otolin-1 (hOtolC1q), wild type (human)
[2] = target: gC1q domain of human otolin-1, natural variant Q426R (human)
[3] = target: gC1q domain of human otolin-1, natural variant R339S (human)

gC1q domain of human otolin-1 (hOtolC1q), wild type (domain or fragment)
stoichiometry N [1]: 3

gC1q domain of human otolin-1, natural variant Q426R (domain or fragment)
stoichiometry N [2]: 3

gC1q domain of human otolin-1, natural variant R339S (domain or fragment)
stoichiometry N [3]: 3
